Data reported in patent US20180193457A1 (University of Washington, published 2018).

Columns and labels:
[1] = target: T1, wild-type FimH adhesin variant of the uropathogenic E. coli strain J96 (FimH^wt) (uropathogenic E. coli strain J96, UniProt P08191 22-300); assay: cell-based or functional assay
[2] = target: T1, wild-type FimH adhesin variant of the …; assay: SPR2 (Analytical Biopharmacy Core), FimH^wt fimbriae on CM5 chip, mAb as analyte, 1:1 Langmuir model

B1: mAb926 (antibody, V domains shown)
VH: QVQLQQSGAELATPGASVKMSCKASGYTSTNYWIHWVKQRPGQGLEWIGYINPTSGYTEYNQNFKDKATLTADKSSSTAYMQLTSLTSEDSAVYYCARGVIRDFWGQGTTLTVSS
VL: DVLMTQTPLSLPVSLGDQASISCRSSQNIVHNNGNTYLEWYLQSPGQSPKLLIYKVSNRFSGVPDRFSGSGSGTDFTLKISRVEAEDLGVYYCFQGSHVPFTFGSGTKLEIK
notes: also called mA926; mAb296
half-maximal inhibitory concentration (IC50) of bacterial adhesion to mannosylated (yeast mannan) surfaces [1]: 0.4 nM
Kd [2]: 0.22 nM
